Consider one molecule from publication doi:10.1101/2021.10.03.462214 (bioRxiv, 2021).

The target in the test is UBg_8UBgg (UniProt P0CG47, G76 deletion). Briefly: cryo-EM structure.

B1: Rpn10 (natural protein)
chain: MVLESTMVCVDNSEYMRNGDFLPTRLQAQQDAVNIVCHSKTRSNPENNVGLITLANDCEVLTTLTPDTGRILSKLHTVQPKGKITFCTGIRVAHLALKHRQGKNHKMRIIAFVGSPVEDNEKDLVKLAKRLKKEKVNVDIINFGEEEVNTEKLTAFVNTLNGKDGTGSHLVTVPPGPSLADALISSPILAGEGGAMLGLGASDFEFGVDPSADPELALALRVSMEEQRQRQEEEARRAAAASAAEAGIATTGTEDSDDALLKMTISQQEFGRTGLPDLSSMTEEEQIAYAMQMSLQGAEFGQAESADIDASSAMDTSEPAKEEDDYDVMQDPEFLQSVLENLPGVDPNNEAIRNAMGSLASQATKDGKKDKKEEDKK
B1: the binding result is “binds”.
